Experimental data published in US20220340636A1.

Biological target: human IR-B overexpressed on NIH 3T3 mouse fibroblast cells (human) (UniProt P06213)
Assay: cell-based or functional assay

Question: With Con-Ins G1 (ligand) as the substance, how does the fold less active than hIns, Akt phosphorylation assay read?
Answer: 10 fold

Question: And the log [EC50 (nM)], Akt phosphorylation (pAkt Ser473)?
Answer: 0.78 log nM

Question: Which results are given for sCon-Ins G1 (ligand)?
Answer: fold greater efficiency of Akt phosphorylation than the PTM-free analogue: 8 fold; log [EC50 (nM)], Akt phosphorylation (pAkt Ser473): 0.9 log nM
